Consider 2 molecules from patent US20110011742, “METHOD FOR THE PURIFICATION OF BIOLOGICAL MACROMOLECULES” (published 2011).

Data set [1] has as its target T1, Sp1 (UniProt P08047 P08047:2-785). Put plainly: probe mixture, gel-separated complex hybridised to microarray; signal 0 at Y-11t; room temperature 30 min. To be noted: tags: Promega recombinant; label: IRDye 700 (gel) or 5'-Cy3 on YZ-11f (microarray); partially double-stranded, 3' single-strand tag on YZ-11f. The procedure: (§1) The Sp1 protein was mixed with a group of Cy3 labeled probes (YZ-7, YZ-9 and YZ-11) at room temperature for 30 minutes and then the protein/DNA complex was separated on the polyacrylamide column using the separation method described in Example 1. The collected protein/DNA complex was concentrated, the buffer changed to 5×SSC, 0.1% SDS, and the DNA hybridized to a microarray slide containing oligonucleotide DNA sequences shown in Table 2. Small amounts of YZ-2 and YZ-4 were added (shown in Table 3 and complementary to the sequences of YZ-1 and YZ-3). These sequences, shown in Table 3, serve as a positive control and reference signal. Only the Sp1 and control probes yielded positive signals (see Table 4). […] The microarray results (shown in Table 4) was consistent with the result from the gel shift assay.

In data set [2] the target is T1, Sp1. Put plainly: probe mixture, gel-separated complex hybridised to microarray; signal 0 at the tag-complementary spot Y-14 (Y-7t also 0); room temperature 30 min. To be noted: tags: Promega recombinant; label: 5'-Cy3 on YZ-7f (microarray); partially double-stranded, 3' single-strand tag on YZ-7f. The procedure: as §1

T1 sequence (P08047 2-785, one chain of several): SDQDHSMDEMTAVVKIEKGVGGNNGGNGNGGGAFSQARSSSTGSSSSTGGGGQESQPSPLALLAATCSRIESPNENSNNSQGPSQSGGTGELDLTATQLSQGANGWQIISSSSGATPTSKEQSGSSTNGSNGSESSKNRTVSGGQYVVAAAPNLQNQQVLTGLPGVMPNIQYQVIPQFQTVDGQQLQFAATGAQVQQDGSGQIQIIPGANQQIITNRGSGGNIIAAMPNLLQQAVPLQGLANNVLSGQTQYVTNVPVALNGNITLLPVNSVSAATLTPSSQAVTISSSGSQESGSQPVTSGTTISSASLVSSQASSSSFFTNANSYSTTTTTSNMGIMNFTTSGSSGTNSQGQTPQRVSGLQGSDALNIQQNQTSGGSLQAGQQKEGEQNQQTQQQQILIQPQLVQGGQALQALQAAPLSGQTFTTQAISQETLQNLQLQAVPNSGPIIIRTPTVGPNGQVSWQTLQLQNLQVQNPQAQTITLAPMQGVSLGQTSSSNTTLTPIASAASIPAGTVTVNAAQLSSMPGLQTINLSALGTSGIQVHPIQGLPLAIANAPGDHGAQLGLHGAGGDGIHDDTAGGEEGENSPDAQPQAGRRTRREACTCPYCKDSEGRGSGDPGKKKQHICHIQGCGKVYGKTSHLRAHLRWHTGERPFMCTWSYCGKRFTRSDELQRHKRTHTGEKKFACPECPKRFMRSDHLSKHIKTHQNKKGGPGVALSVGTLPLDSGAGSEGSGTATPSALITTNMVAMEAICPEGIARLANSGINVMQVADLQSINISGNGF

B1: YZ-11 (ER-alpha probe) (dsDNA)
DNA 1: CCTGCCAGGTCGCGCTGCCCTCCTTCTACCATGCCTTAGGAGAATTGTTTTGTTT
DNA 2: GGTAGAAGGAGGGCAGCGCGACCTGGCAGG
Take B1: in data set [1], the binding result is “no binding”.

B2: YZ-7 (NF-kb probe) (dsDNA)
DNA 1: TCCTAGCTTCAGAGGGGACTTTCCGAGAGGACCTGAAGAAATGGTTTTGAATCAT
DNA 2: CCTCTCGGAAAGTCCCCTCTGAAGCTAGGA
Turning to B2, the binding result in data set [2] is reported as “no binding”.
